± gives the uncertainty stated by the source.
B1: POU domain, class 5, transcription factor 1, residues 134 to 212; numbered along this chain, Q01860 (parent)
chain: EESQDIKALQKELEQFAKLLKQKRITLGYTQADVGLTLGVLFGKVFSQTTICRFEALQLSFKNMCKLRPLLQKWVEEAD
B2: Intersectin-1, residues 1156 to 1213; numbered along this chain, Q15811 (parent)
chain: AVCQVIGMYDYTAQNDDELAFNKGQIINVLNKEDPDWWKGEVNGQVGLFPSNYVKLTT

Variants of: B1
Assay: abundance fitness (aPCA) (normalised: wild type 0, dead -1); higher = more abundant; growth selection in yeast, the domain comes from the species named
Settings: Homo sapiens

Row | Variant | abundance fitness
1 | L36P | -0.6 ± 0.26
2 | R68T | -0.436 ± 0.19
3 | R68E | -0.421 ± 0.26
4 | Y29W | -0.472 ± 0.18
5 | L20V | -0.056 ± 0.12
6 | L20A | -0.704 ± 0.27
7 | M64R | -0.871 ± 0.15
8 | M64P | -0.604 ± 0.27
9 | M64V | -0.675 ± 0.15
10 | M64L | -0.333 ± 0.11
11 | R24Q | -0.391 ± 0.44
12 | D33T | -1.08 ± 0.5
13 | D33K | 0.128 ± 0.2
14 | D33Q | 0.236 ± 0.13
15 | C65D | 0.155 ± 0.16
16 | C65V | -0.178 ± 0.097
17 | C65Y | -0.449 ± 0.32
18 | T26Q | -0.123 ± 0.39
19 | G28Q | -0.389 ± 0.2
20 | V45D | -0.28 ± 0.13
21 | V45M | -0.122 ± 0.21
22 | L13Y | -0.527 ± 0.24
23 | L13Q | -0.641 ± 0.34
24 | L67Q | -0.756 ± 0.39

Row | Variant | abundance fitness
25 | L67S | -0.608 ± 0.22
26 | E77P | -0.264 ± 0.17
27 | E77K | -0.074 ± 0.17
28 | V75D | -0.413 ± 0.3
29 | V75K | -0.056 ± 0.31
30 | V75W | -0.802 ± 0.39
31 | V75G | -0.645 ± 0.29
32 | K18Q | 0.029 ± 0.19
33 | K18T | 0.074 ± 0.13
34 | K18H | -0.523 ± 0.48
35 | E14S | -0.358 ± 0.13
36 | E14K | 0.267 ± 0.14
37 | E14I | 0.14 ± 0.15
38 | E14R | 0.063 ± 0.081
39 | A32C | -0.229 ± 0.32
40 | A32K | 0.232 ± 0.2
41 | E55V | -1.04 ± 0.41
42 | E55W | -0.555 ± 0.26
43 | E55R | -0.607 ± 0.16
44 | F54E | -0.828 ± 0.33
45 | F54Q | -0.891 ± 0.47
46 | T30E | -1.06 ± 0.48
47 | T30S | 0.082 ± 0.085
48 | F46I | 0.107 ± 0.24

Row | Variant | abundance fitness
49 | L38T | -0.035 ± 0.23
50 | L38Q | -0.482 ± 0.36
51 | L38M | 0.185 ± 0.15
52 | L38V | -0.52 ± 0.14
53 | C52E | 0.086 ± 0.31
54 | C52K | 0.356 ± 0.25
55 | Q48M | 0.348 ± 0.35
56 | Q48A | 0.162 ± 0.15
57 | T49W | -0.259 ± 0.15
58 | T49L | -0.418 ± 0.12
59 | T49D | 0.044 ± 0.16
60 | Q31A | -0.103 ± 0.11
61 | R53S | -0.467 ± 0.34
62 | R53P | -0.287 ± 0.46
63 | R53E | -0.078 ± 0.16
64 | R53Q | -0.074 ± 0.17
65 | K7T | -0.162 ± 0.1
66 | K7C | -0.132 ± 0.086
67 | K7H | -0.193 ± 0.15
68 | Q4H | -0.051 ± 0.4
69 | Q4D | 0.046 ± 0.14
70 | G35Q | -0.039 ± 0.25
71 | G35C | -0.64 ± 0.32
72 | F61A | -0.147 ± 0.12

Row | Variant | abundance fitness
73 | F61Y | -0.09 ± 0.5
74 | F61V | 0.031 ± 0.097
75 | S3F | -0.082 ± 0.27
76 | Q15C | -0.218 ± 0.2
77 | F42W | -0.165 ± 0.08
78 | F42C | 0.092 ± 0.15
79 | F42G | -0.091 ± 0.049
80 | F42A | -0.014 ± 0.054
81 | F42Q | -0.875 ± 0.24
82 | F42I | -0.49 ± 0.19
83 | E76M | -0.017 ± 0.22
84 | E76G | -0.644 ± 0.18
85 | L70Y | 0.262 ± 0.17
86 | L19E | -0.447 ± 0.32
87 | D79T | -0.122 ± 0.21
88 | L9W | -0.254 ± 0.087
89 | L9Q | 0.106 ± 0.12
90 | K66P | -0.51 ± 0.27
91 | K66F | 0.04 ± 0.28
92 | K66D | -0.477 ± 0.3
93 | L27R | -0.345 ± 0.1
94 | L27K | -0.31 ± 0.19
95 | I6D | 0.122 ± 0.16
96 | I6N | -0.082 ± 0.23

Row | Variant | abundance fitness
97 | I6G | -0.122 ± 0.077
98 | I51R | -0.575 ± 0.34
99 | I51G | -0.25 ± 0.15
100 | F16P | -0.023 ± 0.34
101 | K11S | 0.019 ± 0.12
102 | K11G | -0.168 ± 0.089
103 | N63A | 0.045 ± 0.11
104 | N63G | -0.314 ± 0.1
105 | P69Q | -0.618 ± 0.43
106 | P69G | -0.085 ± 0.13
107 | G39H | -0.441 ± 0.39
108 | G39R | -0.318 ± 0.095
109 | K73M | -0.799 ± 0.28
110 | K73G | -0.386 ± 0.1
111 | V34A | -0.742 ± 0.29
112 | V34Q | -0.231 ± 0.32
113 | E1S | -0.58 ± 0.45
114 | L59P | -0.312 ± 0.37
115 | Q22R | -0.092 ± 0.2
116 | K23A | -0.608 ± 0.33
117 | L71T | -0.246 ± 0.16
118 | V40Y | -0.237 ± 0.35
119 | K62G | -0.146 ± 0.083
120 | K62V | -0.24 ± 0.14

Row | Variant | abundance fitness
121 | K62M | 0.192 ± 0.23
122 | K62P | -0.08 ± 0.24
123 | T37P | -0.621 ± 0.33
124 | T37I | -0.093 ± 0.18
125 | L57W | -0.355 ± 0.17
126 | L57Y | 0.129 ± 0.29
127 | L57P | -0.005 ± 0.22
128 | Q72M | -0.31 ± 0.16
129 | Q72K | -0.025 ± 0.18
130 | E12L | -0.312 ± 0.12
131 | E12W | -0.226 ± 0.1
132 | E12K | 0.254 ± 0.12
133 | K21G | -0.707 ± 0.18
134 | K21P | -0.353 ± 0.3
135 | K44N | -0.26 ± 0.23
136 | K44C | -0.381 ± 0.18
137 | K44D | -0.262 ± 0.2
138 | K44M | -0.374 ± 0.39
139 | K44Q | 0.018 ± 0.091
140 | A56N | 0.067 ± 0.28
141 | A56V | -0.464 ± 0.14

Variants of: B2
Assay: as above
Settings: Homo sapiens

Row | Variant | abundance fitness
142 | N52F | -0.784 ± 0.33
143 | N52P | -0.544 ± 0.18
144 | N52M | -0.097 ± 0.14
145 | N52E | -0.201 ± 0.11
146 | N52R | 0.022 ± 0.083
147 | N52V | -0.439 ± 0.11
148 | N52D | -0.079 ± 0.14
149 | N52S | -0.075 ± 0.097
150 | N52I | -0.364 ± 0.24
151 | N52Q | -0.147 ± 0.13
152 | N52C | -0.251 ± 0.12
153 | N52T | -0.067 ± 0.13
154 | N52A | -0.183 ± 0.1
155 | N52H | -0.469 ± 0.15
156 | N52Y | -0.291 ± 0.21
157 | N52G | -0.253 ± 0.076
158 | N52L | -0.561 ± 0.12
159 | N52W | -0.446 ± 0.14
160 | L56Y | -0.168 ± 0.22
161 | L56R | -0.341 ± 0.083
162 | L56T | 0.081 ± 0.14
163 | L56F | -0.124 ± 0.16
164 | L56E | 0.005 ± 0.13
165 | L56M | -0.148 ± 0.12
166 | L56P | -0.121 ± 0.14
167 | L56G | -0.102 ± 0.079
